For the data set, the target named is T1, CebR-His6 (Streptomyces scabies 87-22, UniProt C9Z452 1-352).
T1 sequence: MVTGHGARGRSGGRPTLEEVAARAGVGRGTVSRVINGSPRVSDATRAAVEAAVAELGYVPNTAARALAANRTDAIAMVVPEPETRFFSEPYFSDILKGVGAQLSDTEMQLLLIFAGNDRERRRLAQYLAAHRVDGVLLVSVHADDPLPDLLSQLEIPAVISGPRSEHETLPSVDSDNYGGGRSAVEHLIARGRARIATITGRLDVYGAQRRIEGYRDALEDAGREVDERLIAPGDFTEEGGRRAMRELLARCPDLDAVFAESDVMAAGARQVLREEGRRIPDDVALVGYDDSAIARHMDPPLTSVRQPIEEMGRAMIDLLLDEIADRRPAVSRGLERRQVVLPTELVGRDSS
The experiment in a line: EMSA. (In general: A gel shift assay detects complexes by their altered migration in electrophoresis.)

Here are results for 2 molecules from article PMC4358012.

B1: cbstxtB probe (dsDNA)
DNA 1: CTCCCCCAGGGGGAGCGCTCCCACTGCGCTGTA
DNA 2: TACAGCGCAGTGGGAGCGCTCCCCCTGGGGGAG
With B1, the binding result is recorded as “binds”.

B2: cbstxtR-A probe (dsDNA)
DNA 1: TGTCAATAAGCGGGAGCGCTCCCACAGCGCTCTC
DNA 2: GAGAGCGCTGTGGGAGCGCTCCCGCTTATTGACA
For B2, the binding result is recorded as “binds”.
